IntAct's records for PubMed 25910212

B1: U4/U6 small nuclear ribonucleoprotein Prp31 (Homo sapiens), Q8WWY3 (parent)
chain: MSLADELLADLEEAAEEEEGGSYGEEEEEPAIEDVQEETQLDLSGDSVKTIAKLWDSKMFAEIMMKIEEYISKQAKASEVMGPVEAAPEYRVIVDANNLTVEIENELNIIHKFIRDKYSKRFPELESLVPNALDYIRTVKELGNSLDKCKNNENLQQILTNATIMVVSVTASTTQGQQLSEEELERLEEACDMALELNASKHRIYEYVESRMSFIAPNLSIIIGASTAAKIMGVAGGLTNLSKMPACNIMLLGAQRKTLSGFSSTSVLPHTGYIYHSDIVQSLPPDLRRKAARLVAAKCTLAARVDSFHESTEGKVGYELKDEIERKFDKWQEPPPVKQVKPLPAPLDGQRKKRGGRRYRKMKERLGLTEIRKQANRMSFGEIEEDAYQEDLGFSLGHLGKSGSGRVRQTQVNEATKARISKTLQRTLQKQSVVYGGKSTIRDRSSGTASSVAFTPLQGLEIVNPQAAEKKVAEANQKYFSSMAEFLKVKGEKSGLMST
partner: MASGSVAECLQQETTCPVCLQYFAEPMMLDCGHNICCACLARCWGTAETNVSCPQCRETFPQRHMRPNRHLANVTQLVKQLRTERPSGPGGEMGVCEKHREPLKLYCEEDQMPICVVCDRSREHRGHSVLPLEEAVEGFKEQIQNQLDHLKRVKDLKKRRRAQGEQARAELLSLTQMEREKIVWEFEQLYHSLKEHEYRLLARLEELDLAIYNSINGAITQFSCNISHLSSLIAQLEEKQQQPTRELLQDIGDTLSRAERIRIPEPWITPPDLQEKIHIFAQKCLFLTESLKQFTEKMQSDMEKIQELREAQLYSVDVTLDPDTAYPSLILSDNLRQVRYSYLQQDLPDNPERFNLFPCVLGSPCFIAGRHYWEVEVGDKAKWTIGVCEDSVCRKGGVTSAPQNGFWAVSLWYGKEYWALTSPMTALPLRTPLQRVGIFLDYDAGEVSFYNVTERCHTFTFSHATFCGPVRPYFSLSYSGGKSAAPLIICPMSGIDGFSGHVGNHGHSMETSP
B2: U4/U6 small nuclear ribonucleoprotein Prp31 (Homo sapiens), Q8WWY3 (parent)
chain: B1 chain
partner: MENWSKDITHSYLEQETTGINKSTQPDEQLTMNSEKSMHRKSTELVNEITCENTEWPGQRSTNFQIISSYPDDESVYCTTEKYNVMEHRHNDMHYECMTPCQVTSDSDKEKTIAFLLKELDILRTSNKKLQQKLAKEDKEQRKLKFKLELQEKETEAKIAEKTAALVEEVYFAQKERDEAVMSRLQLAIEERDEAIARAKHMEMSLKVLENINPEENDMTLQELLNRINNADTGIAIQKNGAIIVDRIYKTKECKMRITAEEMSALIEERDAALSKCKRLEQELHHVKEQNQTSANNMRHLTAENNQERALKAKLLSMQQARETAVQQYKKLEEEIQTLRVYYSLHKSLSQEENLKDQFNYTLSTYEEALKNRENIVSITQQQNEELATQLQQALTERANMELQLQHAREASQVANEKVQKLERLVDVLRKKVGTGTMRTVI
B3: Corrinoid adenosyltransferase MMAB (Homo sapiens), Q96EY8 (parent)
chain: MAVCGLGSRLGLGSRLGLRGCFGAARLLYPRFQSRGPQGVEDGDRPQPSSKTPRIPKIYTKTGDKGFSSTFTGERRPKDDQVFEAVGTTDELSSAIGFALELVTEKGHTFAEELQKIQCTLQDVGSALATPCSSAREAHLKYTTFKAGPILELEQWIDKYTSQLPPLTAFILPSGGKISSALHFCRAVCRRAERRVVPLVQMGETDANVAKFLNRLSDYLFTLARYAAMKEGNQEKIYMKNDPSAESEGL
partner: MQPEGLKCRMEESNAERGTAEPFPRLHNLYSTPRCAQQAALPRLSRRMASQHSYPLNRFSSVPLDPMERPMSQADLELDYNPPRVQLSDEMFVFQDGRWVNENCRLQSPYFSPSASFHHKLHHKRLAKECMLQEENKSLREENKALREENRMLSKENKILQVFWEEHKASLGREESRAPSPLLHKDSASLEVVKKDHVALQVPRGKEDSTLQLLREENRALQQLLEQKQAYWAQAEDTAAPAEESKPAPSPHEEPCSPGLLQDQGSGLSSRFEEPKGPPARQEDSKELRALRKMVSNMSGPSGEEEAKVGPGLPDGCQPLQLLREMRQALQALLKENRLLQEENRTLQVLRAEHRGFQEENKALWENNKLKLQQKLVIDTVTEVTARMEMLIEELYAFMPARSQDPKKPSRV
B4: ATP synthase mitochondrial F1 complex assembly factor 2 (Homo sapiens), Q8N5M1 (parent)
chain: MWRSCLRLRDGGRRLLNRPAGGPSASMSPGPTIPSPARAYAPPTERKRFYQNVSITQGEGGFEINLDHRKLKTPQAKLFTVPSEALAIAVATEWDSQQDTIKYYTMHLTTLCNTSLDNPTQRNKDQLIRAAVKFLDTDTICYRVEEPETLVELQRNEWDPIIEWAEKRYGVEISSSTSIMGPSIPAKTREVLVSHLASYNTWALQGIEFVAAQLKSMVLTLGLIDLRLTVEQAVLLSRLEEEYQIQKWGNIEWAHDYELQELRARTAAGTLFIHLCSESTTVKHKLLKE
partner: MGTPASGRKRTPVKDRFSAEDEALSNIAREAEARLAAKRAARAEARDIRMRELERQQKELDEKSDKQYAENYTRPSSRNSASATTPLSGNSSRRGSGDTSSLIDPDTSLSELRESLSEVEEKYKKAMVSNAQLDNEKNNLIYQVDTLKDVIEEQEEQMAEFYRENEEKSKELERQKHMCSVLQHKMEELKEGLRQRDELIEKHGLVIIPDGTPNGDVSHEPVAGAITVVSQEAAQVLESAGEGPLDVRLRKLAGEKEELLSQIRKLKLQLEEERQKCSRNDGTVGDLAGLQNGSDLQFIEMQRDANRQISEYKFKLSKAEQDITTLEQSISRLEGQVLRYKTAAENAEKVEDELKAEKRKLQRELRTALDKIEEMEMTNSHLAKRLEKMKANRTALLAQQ
B5: DNA mismatch repair protein Mlh1 (Homo sapiens), P40692 (parent)
chain: MSFVAGVIRRLDETVVNRIAAGEVIQRPANAIKEMIENCLDAKSTSIQVIVKEGGLKLIQIQDNGTGIRKEDLDIVCERFTTSKLQSFEDLASISTYGFRGEALASISHVAHVTITTKTADGKCAYRASYSDGKLKAPPKPCAGNQGTQITVEDLFYNIATRRKALKNPSEEYGKILEVVGRYSVHNAGISFSVKKQGETVADVRTLPNASTVDNIRSIFGNAVSRELIEIGCEDKTLAFKMNGYISNANYSVKKCIFLLFINHRLVESTSLRKAIETVYAAYLPKNTHPFLYLSLEISPQNVDVNVHPTKHEVHFLHEESILERVQQHIESKLLGSNSSRMYFTQTLLPGLAGPSGEMVKSTTSLTSSSTSGSSDKVYAHQMVRTDSREQKLDAFLQPLSKPLSSQPQAIVTEDKTDISSGRARQQDEEMLELPAPAEVAAKNQSLEGDTTKGTSEMSEKRGPTSSNPRKRHREDSDVEMVEDDSRKEMTAACTPRRRIINLTSVLSLQEEINEQGHEVLREMLHNHSFVGCVNPQWALAQHQTKLYLLNTTKLSEELFYQILIYDFANFGVLRLSEPAPLFDLAMLALDSPESGWTEEDGPKEGLAEYIVEFLKKKAEMLADYFSLEIDEEGNLIGLPLLIDNYVPPLEGLPIFILRLATEVNWDEEKECFESLSKECAMFYSIRKQYISEESTLSGQQSEVPGSIPNSWKWTVEHIVYKALRSHILPPKHFTEDGNILQLANLPDLYKVFERC
partner: B3 partner
B6: Basal cell adhesion molecule (Homo sapiens), P50895 (parent)
chain: MEPPDAPAQARGAPRLLLLAVLLAAHPDAQAEVRLSVPPLVEVMRGKSVILDCTPTGTHDHYMLEWFLTDRSGARPRLASAEMQGSELQVTMHDTRGRSPPYQLDSQGRLVLAEAQVGDERDYVCVVRAGAAGTAEATARLNVFAKPEATEVSPNKGTLSVMEDSAQEIATCNSRNGNPAPKITWYRNGQRLEVPVEMNPEGYMTSRTVREASGLLSLTSTLYLRLRKDDRDASFHCAAHYSLPEGRHGRLDSPTFHLTLHYPTEHVQFWVGSPSTPAGWVREGDTVQLLCRGDGSPSPEYTLFRLQDEQEEVLNVNLEGNLTLEGVTRGQSGTYGCRVEDYDAADDVQLSKTLELRVAYLDPLELSEGKVLSLPLNSSAVVNCSVHGLPTPALRWTKDSTPLGDGPMLSLSSITFDSNGTYVCEASLPTVPVLSRTQNFTLLVQGSPELKTAEIEPKADGSWREGDEVTLICSARGHPDPKLSWSQLGGSPAEPIPGRQGWVSSSLTLKVTSALSRDGISCEASNPHGNKRHVFHFGTVSPQTSQAGVAVMAVAVSVGLLLLVVAVFYCVRRKGGPCCRQRREKGAPPPGEPGLSHSGSEQPEQTGLLMGGASGGARGGSGGFGDEC
partner: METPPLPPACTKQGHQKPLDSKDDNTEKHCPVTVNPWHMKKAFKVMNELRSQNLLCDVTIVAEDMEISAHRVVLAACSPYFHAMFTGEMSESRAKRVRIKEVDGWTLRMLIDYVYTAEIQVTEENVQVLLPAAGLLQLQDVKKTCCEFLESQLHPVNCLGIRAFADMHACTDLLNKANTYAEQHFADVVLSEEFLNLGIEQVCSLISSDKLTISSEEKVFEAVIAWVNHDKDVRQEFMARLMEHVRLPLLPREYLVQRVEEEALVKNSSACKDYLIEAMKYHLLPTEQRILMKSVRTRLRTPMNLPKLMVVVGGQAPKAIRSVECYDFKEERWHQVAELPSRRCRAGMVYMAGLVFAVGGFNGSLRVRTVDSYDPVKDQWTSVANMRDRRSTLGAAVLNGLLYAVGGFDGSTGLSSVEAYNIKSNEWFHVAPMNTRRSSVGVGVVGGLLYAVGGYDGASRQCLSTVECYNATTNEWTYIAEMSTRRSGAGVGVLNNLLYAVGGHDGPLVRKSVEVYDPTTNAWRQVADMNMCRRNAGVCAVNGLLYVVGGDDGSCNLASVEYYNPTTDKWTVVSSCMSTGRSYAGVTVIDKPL

Variants of: B1
Conditions: with tri27_human TRIM27, P14373

effect of a mutation on the interaction | Variant
with no effect | L107V

Variants of: B2
Conditions: with mipo1_human MIPOL1, Q8TD10

Variant | effect of a mutation on the interaction
L107V | with no effect

Variants of: B3
Conditions: with CBY2, Q8NA61-2

effect of a mutation on the interaction | Variant
with no effect | R190C
with no effect | I96T
with no effect | A135T
with no effect | R186Q

Variants of: B4
Conditions: with LRRFIP2, Q9Y608-2

effect of a mutation on the interaction | Variant
disrupting interaction strength | W94R

Variants of: B5
Conditions: with CBY2, Q8NA61-2

effect of a mutation on the interaction | Variant
with no effect | G244D
with no effect | R472I
disrupting interaction strength | S44F

Variants of: B6
Conditions: with klhl2_human KLHL2, O95198

effect of a mutation on the interaction | Variant
with no effect | R175Q
